As usually defined, the Kd is a measure of binding affinity in units of concentration.

The assay deals with NPM1 (human wildtype nucleophosmin, residues 1 to 290), purified recombinant (human, UniProt P06748 1-290). The assay is described as follows: SPR; NPM1 immobilised, DDX24^WT as analyte. For orientation: In SPR one partner is held on a chip, and binding of the other changes the refractive index at the surface.
NPM1 (human wildtype nucleophosmin, residues 1 to 290), purified recombinant, sequence (P06748 1-290): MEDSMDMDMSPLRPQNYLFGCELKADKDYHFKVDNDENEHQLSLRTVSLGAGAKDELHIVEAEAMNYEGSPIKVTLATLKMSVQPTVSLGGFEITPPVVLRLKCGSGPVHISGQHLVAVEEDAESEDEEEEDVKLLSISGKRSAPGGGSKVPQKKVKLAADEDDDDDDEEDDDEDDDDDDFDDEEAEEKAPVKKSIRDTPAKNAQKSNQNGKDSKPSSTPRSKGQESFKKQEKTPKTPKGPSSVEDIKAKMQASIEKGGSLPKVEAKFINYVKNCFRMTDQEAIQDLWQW

B1: DDX24^WT (human wildtype DDX24, residues 28 to 859), purified recombinant (domain or fragment)
chain: KWKEVKIDPNMFADGQMDDLVCFEELTDYQLVSPAKNPSSLFSKEAPKRKAQAVSEEEEEEEGKSSSPKKKIKLKKSKNVATEGTSTQKEFEVKDPELEAQGDDMVCDDPEAGEMTSENLVQTAPKKKKNKGKKGLEPSQSTAAKVPKKAKTWIPEVHDQKADVSAWKDLFVPRPVLRALSFLGFSAPTPIQALTLAPAIRDKLDILGAAETGSGKTLAFAIPMIHAVLQWQKRNAAPPPSNTEAPPGETRTEAGAETRSPGKAEAESDALPDDTVIESEALPSDIAAEARAKTGGTVSDQALLFGDDDAGEGPSSLIREKPVPKQNENEEENLDKEQTGNLKQELDDKSATCKAYPKRPLLGLVLTPTRELAVQVKQHIDAVARFTGIKTAILVGGMSTQKQQRMLNRRPEIVVATPGRLWELIKEKHYHLRNLRQLRCLVVDEADRMVEKGHFAELSQLLEMLNDSQYNPKRQTLVFSATLTLVHQAPARILHKKHTKKMDKTAKLDLLMQKIGMRGKPKVIDLTRNEATVETLTETKIHCETDEKDFYLYYFLMQYPGRSLVFANSISCIKRLSGLLKVLDIMPLTLHACMHQKQRLRNLEQFARLEDCVLLATDVAARGLDIPKVQHVIHYQVPRTSEIYVHRSGRTARATNEGLSLMLIGPEDVINFKKIYKTLKKDEDIPLFPVQTKYMDVVKERIRLARQIEKSEYRNFQACLHNSWIEQAAAALEIELEEDMYKGGKADQQEERRRQKQMKVLKKELRHLLSQPLFTESQKTKYPTQSGKPPLLVSAPSKSESALSCLSKQKKKKTKKPKEPQPEQPQPSTSAN
In the case of B1, the Kd is 2.4 nM.

Values taken from publication PMC10496494 (2023).
